{"source": "patent US20250262210A1", "about": "(TRUSTEES OF COLUMBIA UNIVERSITY IN THE CITY OF NEW YORK, published 2025)", "binders": {"B1": {"name": "VPS16 (other, human, UniProt Q9H269 1-839, looked up)", "chain": "MDCYTANWNPLGDSAFYRKYELYSMDWDLKEELRDCLVAAAPYGGPIALLRNPWRKEKAASVRPVLDIYSASGMPLASLLWKSGPVVSLGWSAEEELLCVQEDGAVLVYGLHGDFRRHFSMGNEVLQNRVLDARIFHTEFGSGVAILTGAHRFTLSANVGDLKLRRMPEVPGLQSAPSCWTVLCQDRVAHILLAVGPDLYLLDHAACSAVTPPGLAPGVSSFLQMAVSFTYRHLALFTDTGYIWMGTASLKEKLCEFNCNIRAPPKQMVWCSRPRSKERAVVVAWERRLMVVGDAPESIQFVLDEDSYLVPELDGVRIFSRSTHEFLHEVPAASEEIFKIASMAPGALLLEAQKEYEKESQKADEYLREIQELGQLTQAVQQCIEAAGHEHQPDMQKSLLRAASFGKCFLDRFPPDSFVHMCQDLRVLNAVRDYHIGIPLTYSQYKQLTIQVLLDRLVLRRLYPLAIQICEYLRLPEVQGVSRILAHWACYKVQQKDVSDEDVARAINQKLGDTPGVSYSDIAARAYGCGRTELAIKLLEYEPRSGEQVPLLLKMKRSKLALSKAIESGDTDLVFTVLLHLKNELNRGDFFMTLRNQPMALSLYRQFCKHQELETLKDLYNQDDNHQELGSFHIRASYAAEERIEGRVAALQTAADAFYKAKNEFAAKATEDQMRLLRLQRRLEDELGGQFLDLSLHDTVTTLILGGHNKRAEQLARDFRIPDKRLWWLKLTALADLEDWEELEKFSKSKKSPIGYLPFVEICMKQHNKYEAKKYASRVGPEQKVKALLLVGDVAQAADVAIEHRNEAELSLVLSHCTGATDGATADKIQRARAQAQKK"}, "B2": {"name": "ZC3HC1 (other, human, UniProt Q86WB0 2-502, looked up)", "chain": "AAPCEGQAFAVGVEKNWGAVVRSPEGTPQKIRQLIDEGIAPEEGGVDAKDTSATSQSVNGSPQAEQPSLESTSKEAFFSRVETFSSLKWAGKPFELSPLVCAKYGWVTVECDMLKCSSCQAFLCASLQPAFDFDRYKQRCAELKKALCTAHEKFCFWPDSPSPDRFGMLPLDEPAILVSEFLDRFQSLCHLDLQLPSLRPEDLKTMCLTEDKISLLLHLLEDELDHRTDERKTTIKLGSDIQVHVTACILSVCGWACSSSLESMQLSLITCSQCMRKVGLWGFQQIESSMTDLDASFGLTSSPIPGLEGRPERLPLVPESPRRMMTRSQDATFSPGSEQAEKSPGPIVSRTRSWDSSSPVDRPEPEAASPTTRTRPVTRSMGTGDTPGLEVPSSPLRKAKRARLCSSSSSDTSSRSFFDPTSQHRDWCPWVNITLGKESRENGGTEPDASAPAEPGWKAVLTILLAHKQSSQPAETDSMSLSEKSRKVFRIFRQWESLCSC"}, "B3": {"name": "VPS51 (other, human, UniProt Q9UID3 2-782, looked up)", "chain": "AAAAAAGPSPGSGPGDSPEGPEGEAPERRRKAHGMLKLYYGLSEGEAAGRPAGPDPLDPTDLNGAHFDPEVYLDKLRRECPLAQLMDSETDMVRQIRALDSDMQTLVYENYNKFISATDTIRKMKNDFRKMEDEMDRLATNMAVITDFSARISATLQDRHERITKLAGVHALLRKLQFLFELPSRLTKCVELGAYGQAVRYQGRAQAVLQQYQHLPSFRAIQDDCQVITARLAQQLRQRFREGGSGAPEQAECVELLLALGEPAEELCEEFLAHARGRLEKELRNLEAELGPSPPAPDVLEFTDHGGSGFVGGLCQVAAAYQELFAAQGPAGAEKLAAFARQLGSRYFALVERRLAQEQGGGDNSLLVRALDRFHRRLRAPGALLAAAGLADAATEIVERVARERLGHHLQGLRAAFLGCLTDVRQALAAPRVAGKEGPGLAELLANVASSILSHIKASLAAVHLFTAKEVSFSNKPYFRGEFCSQGVREGLIVGFVHSMCQTAQSFCDSPGEKGGATPPALLLLLSRLCLDYETATISYILTLTDEQFLVQDQFPVTPVSTLCAEARETARRLLTHYVKVQGLVISQMLRKSVETRDWLSTLEPRNVRAVMKRVVEDTTAIDVQVGLLYEEGVRKAQSSDSSKRTFSVYSSSRQQGRYAPSYTPSAPMDTNLLSNIQKLFSERIDVFSPVEFNKVSVLTGIIKISLKTLLECVRLRTFGRFGLQQVQVDCHFLQLYLWRFVADEELVHLLLDEVVASAALRCPDPVPMEPSVVEVICERG"}, "B4": {"name": "YME1L1 (other, human, UniProt Q96TA2 1-773, looked up)", "chain": "MFSLSSTVQPQVTVPLSHLINAFHTPKNTSVSLSGVSVSQNQHRDVVPEHEAPSSECMFSDFLTKLNIVSIGKGKIFEGYRSMFMEPAKRMKKSLDTTDNWHIRPEPFSLSIPPSLNLRDLGLSELKIGQIDQLVENLLPGFCKGKNISSHWHTSHVSAQSFFENKYGNLDIFSTLRSSCLYRHHSRALQSICSDLQYWPVFIQSRGFKTLKSRTRRLQSTSERLAETQNIAPSFVKGFLLRDRGSDVESLDKLMKTKNIPEAHQDAFKTGFAEGFLKAQALTQKTNDSLRRTRLILFVLLLFGIYGLLKNPFLSVRFRTTTGLDSAVDPVQMKNVTFEHVKGVEEAKQELQEVVEFLKNPQKFTILGGKLPKGILLVGPPGTGKTLLARAVAGEADVPFYYASGSEFDEMFVGVGASRIRNLFREAKANAPCVIFIDELDSVGGKRIESPMHPYSRQTINQLLAEMDGFKPNEGVIIIGATNFPEALDNALIRPGRFDMQVTVPRPDVKGRTEILKWYLNKIKFDQSVDPEIIARGTVGFSGAELENLVNQAALKAAVDGKEMVTMKELEFSKDKILMGPERRSVEIDNKNKTITAYHESGHAIIAYYTKDAMPINKATIMPRGPTLGHVSLLPENDRWNETRAQLLAQMDVSMGGRVAEELIFGTDHITTGASSDFDNATKIAKRMVTKFGMSEKLGVMTYSDTGKLSPETQSAIEQEIRILLRDSYERAKHILKTHAKEHKNLAEALLTYETLDAKEIQIVLEGKKLEVR"}}, "key": {"LZTR1 R810W-FLAG": {"biological_target": "T1, LZTR1 R810W-FLAG (human, UniProt Q8N653 1-840)", "T1 construct": "Stably expressed in U87 cells by lentivirus; also called LZTR1-FLAG-R810W; LZTR1 RW; not shown: FLAG tag", "T1 sequence (looked up)": "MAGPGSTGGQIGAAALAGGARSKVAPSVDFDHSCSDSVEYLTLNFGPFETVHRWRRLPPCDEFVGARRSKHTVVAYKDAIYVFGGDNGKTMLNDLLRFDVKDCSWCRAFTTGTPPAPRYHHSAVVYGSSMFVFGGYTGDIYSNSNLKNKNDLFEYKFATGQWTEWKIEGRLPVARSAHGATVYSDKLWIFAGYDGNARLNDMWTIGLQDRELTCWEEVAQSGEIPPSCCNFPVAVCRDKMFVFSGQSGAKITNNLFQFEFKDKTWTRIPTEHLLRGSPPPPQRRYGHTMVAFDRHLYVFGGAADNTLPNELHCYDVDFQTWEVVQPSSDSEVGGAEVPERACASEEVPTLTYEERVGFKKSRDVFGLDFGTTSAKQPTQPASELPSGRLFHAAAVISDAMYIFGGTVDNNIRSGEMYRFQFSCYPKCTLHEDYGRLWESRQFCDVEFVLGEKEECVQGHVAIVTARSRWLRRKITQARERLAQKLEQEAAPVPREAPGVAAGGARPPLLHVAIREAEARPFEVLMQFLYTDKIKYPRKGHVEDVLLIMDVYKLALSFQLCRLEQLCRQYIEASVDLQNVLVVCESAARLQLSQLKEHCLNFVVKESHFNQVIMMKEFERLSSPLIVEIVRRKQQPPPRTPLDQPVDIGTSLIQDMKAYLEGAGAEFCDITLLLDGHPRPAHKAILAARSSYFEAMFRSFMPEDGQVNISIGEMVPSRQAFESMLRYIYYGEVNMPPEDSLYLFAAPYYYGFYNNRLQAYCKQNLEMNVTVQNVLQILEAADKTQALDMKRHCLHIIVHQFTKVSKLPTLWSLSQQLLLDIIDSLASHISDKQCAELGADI", "experiment": "IP/MS, LZTR1 R810W-FLAG, U87", "method_in_brief": "(§1)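 Read-out: spectral counts from LC-MS/MS (Orbitrap Fusion) after MaxQuant identification. Variable modifications were Met oxidation, protein N-terminal acetylation and N/Q deamidation.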"}, "LZTR1-FLAG": {"biological_target": "T2, LZTR1-FLAG (human, UniProt Q8N653 1-840)", "T2 construct": "Expressed in HEK 293T, HeLa or U87 cells; used as cell lysate; also called LZTR1 wild type-FLAG; LZTR1 WT; not shown: FLAG tag at the C-terminus", "T2 sequence (looked up)": "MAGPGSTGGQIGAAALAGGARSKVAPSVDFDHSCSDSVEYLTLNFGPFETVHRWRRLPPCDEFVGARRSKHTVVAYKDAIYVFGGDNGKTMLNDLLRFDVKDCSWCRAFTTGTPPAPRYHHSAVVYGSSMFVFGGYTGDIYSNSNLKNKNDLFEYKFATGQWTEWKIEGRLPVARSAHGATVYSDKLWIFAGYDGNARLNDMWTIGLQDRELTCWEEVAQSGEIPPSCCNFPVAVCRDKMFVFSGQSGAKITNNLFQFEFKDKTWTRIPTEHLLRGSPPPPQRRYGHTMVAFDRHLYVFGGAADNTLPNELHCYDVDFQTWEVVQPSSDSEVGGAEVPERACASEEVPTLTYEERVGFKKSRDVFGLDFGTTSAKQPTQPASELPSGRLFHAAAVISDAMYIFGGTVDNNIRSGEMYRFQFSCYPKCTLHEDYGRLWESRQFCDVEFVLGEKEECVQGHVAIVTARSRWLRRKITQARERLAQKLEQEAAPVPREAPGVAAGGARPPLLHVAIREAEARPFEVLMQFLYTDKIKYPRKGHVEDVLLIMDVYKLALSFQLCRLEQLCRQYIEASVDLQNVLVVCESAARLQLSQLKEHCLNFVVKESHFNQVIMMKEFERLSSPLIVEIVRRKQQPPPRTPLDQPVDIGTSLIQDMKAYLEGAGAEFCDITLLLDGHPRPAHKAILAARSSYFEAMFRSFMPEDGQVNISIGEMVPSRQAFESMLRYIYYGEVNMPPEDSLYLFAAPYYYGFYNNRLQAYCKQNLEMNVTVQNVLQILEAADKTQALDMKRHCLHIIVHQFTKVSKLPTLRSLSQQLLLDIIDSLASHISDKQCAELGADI", "experiment": "IP/MS, LZTR1 wild type-FLAG, U87", "method_in_brief": "as §1"}}, "data": [{"binder": "B1", "values": [{"measurement": "binding result", "setting": "LZTR1 R810W-FLAG", "result": "binds"}, {"measurement": "binding result", "setting": "LZTR1-FLAG", "result": "binds"}]}, {"binder": "B2", "values": [{"measurement": "binding result", "setting": "LZTR1 R810W-FLAG", "result": "binds"}, {"measurement": "binding result", "setting": "LZTR1-FLAG", "result": "binds"}]}, {"binder": "B3", "values": [{"measurement": "binding result", "setting": "LZTR1 R810W-FLAG", "result": "binds"}, {"measurement": "binding result", "setting": "LZTR1-FLAG", "result": "binds"}]}, {"binder": "B4", "values": [{"measurement": "binding result", "setting": "LZTR1 R810W-FLAG", "result": "binds"}, {"measurement": "binding result", "setting": "LZTR1-FLAG", "result": "binds"}]}]}
